The term Kd denotes the concentration at which binding is half-saturated.

One data set has as its system MBP-ERS M487V (human). Put plainly: EMSA. Conditions: 1 mM Mg2+; 5 ug/mL heparin (unit prefix not given); none (in vitro transcript); 25 mM Tris-HCl pH 7.5, 50 mM NaCl, 1 mM MgCl2, 1 mM DTT, 5 ug/mL heparin (prefix not given), 10 nM 32P-tRNA, room temperature 30 min; native 4-16% gel on …. A general note: A gel shift assay detects complexes by their altered migration in electrophoresis.

Another data set has as its system MBP-ERS I212T (human). Put plainly: EMSA. Conditions: 1 mM Mg2+; 5 ug/mL heparin (unit prefix not given); none (in vitro transcript); 25 mM Tris-HCl pH 7.5, 50 mM NaCl, 1 mM MgCl2, 1 mM DTT, 5 ug/mL heparin (prefix not given), 10 nM 32P-tRNA, room temperature 30 min; native 4-16% gel on ….

As to human tRNAGlu(TTC), the Kd with MBP-ERS M487V (human) amounted to 1200 nM; with MBP-ERS I212T (human) it was 2000 nM.

For the origin of these results see paper PMC9898101.
